Reference: article PMC6075780, “Interaction of lipoprotein QseG with sensor kinase QseE in the periplasm controls the phosphorylation state of the two-component system QseE/QseF in Escherichia coli” (PLoS Genetics, 2018)

B1: T25-QseE [E. coli K-12] / T18-TM_(oppB)-QseG [E. coli K-12] (parent complex)
chain 1: MKRWPVFPRSLRQLVMLAFLLILLPLLVLAWQAWQSLNALSDQAALVNRTTLIDARRSEAMTNAALEMERSYRQYCVLDDPTLAKVYQSQRKRYSEMLDAHAGVLPDDKLYQALRQDLHNLAQLQCNNSGPDAAAAARLEAFASANTEMVQATRTVVFSRGQQLQREIAERGQYFGWQSLVLFLVSLVMVLLFTRMIIGPVKNIERMINRLGEGRSLGNSVSFSGPSELRSVGQRILWLSERLSWLESQRHQFLRHLSHELKTPLASMREGTELLADQVVGPLTPEQKEVVSILDSSSRNLQKLIEQLLDYNRKQADSAVELENVELAPLVETVVSAHSLPARAKMMHTDVDLKATACLAEPMLLMSVLDNLYSNAVHYGAESGNICLRSSLHGARVYIDVINTGTPIPQEERAMIFEPFFQGSHQRKGAVKGSGLGLSIARDCIRRMQGELYLVDESGQDVCFRIELPSSKNTK
chain 2: CVQNHNKPAIDTPAEEKIPVYQLADYLSTECSDIWALQGKSTETNPLYWLRAMDCADRLMPAQSRQQARQYDDGSWQNTFKQGILLADAKITPYERRQLVARIEALSTEIPAQVRPLYQLWRDGQALQLQLAEERQRYSKLQQSSDSELDTLRQQHHVLQQQLELTTRKLENLTDIERQLSTRKPAGNFSPDTPHESEKPAPSTHEVTPDEP

Variants of: B1
Assay: BACTH assay (bacterial two-hybrid, β-galactosidase read-out); reporter strain BTH101; plasmids pYG242/pYG199_1.6; parent: 1.6e+03; read off a plot

Row | Variant | response
1 | chain 1 MKRWPVFPRSLRQLVMLAFLLILLPLLVLAWQAWQSLNALSDQAALVNRTTLIDARRNEAMTNAALEMERSYRQYCVLDDPTLAKVYQSQRKRYSEMLDAHAGVLPDDKLYQALRQDLHNLAQLQCNNSGPDAAAAARLEAFASANTEMVQATRTVVFSRGQQLQREIAERGQYFGWQSLVLFLVSLVMVLLFTRMIIGPVKNIERMINRLGEGRSLGNSVSFSGPSELRSVGQRILWLSERLSWLESQRHQFLRHLSHELKTPLASMREGTELLADQVVGPLTPEQKEVVSILDSSSRNLQKLIEQLLDYNRKQADSAVELENVELAPLVETVVSAHSLPARAKMMHTDVDLKATACLAEPMLLMSVLDNLYSNAVHYGAESGNICLRSSLHGARVYIDVINTGTPIPQEERAMIFEPFFQGSHQRKGAVKGSGLGLSIARDCIRRMQGELYLVDESGQDVCFRIELPSSKNTK [chain 1 S58N] | ~250 Miller units

Variants of: B1
Assay: BACTH assay (bacterial two-hybrid, β-galactosidase read-out); reporter strain BTH101; plasmids pYG242/pYG199_TM1; parent: 1.6e+03; read off a plot

Row | Variant | response
2 | chain 1 MKRWPVFPRSLRQLVMLALLHRPPPLLVLAWQAWQSLNALSDQAALVNRTTLIDARRSEAMTNAALEMERSYRQYCVLDDPTLAKVYQSQRKRYSEMLDAHAGVLPDDKLYQALRQDLHNLAQLQCNNSGPDAAAAARLEAFASANTEMVQATRTVVFSRGQQLQREIAERGQYFGWQSLVLFLVSLVMVLLFTRMIIGPVKNIERMINRLGEGRSLGNSVSFSGPSELRSVGQRILWLSERLSWLESQRHQFLRHLSHELKTPLASMREGTELLADQVVGPLTPEQKEVVSILDSSSRNLQKLIEQLLDYNRKQADSAVELENVELAPLVETVVSAHSLPARAKMMHTDVDLKATACLAEPMLLMSVLDNLYSNAVHYGAESGNICLRSSLHGARVYIDVINTGTPIPQEERAMIFEPFFQGSHQRKGAVKGSGLGLSIARDCIRRMQGELYLVDESGQDVCFRIELPSSKNTK [chain 1 F19L, chain 1 L21H, chain 1 I22R, chain 1 L23P, chain 1 L24P] | ~70 Miller units
